Laboratory results taken from article PMC8775250, “Cryo-EM Structure of the Rhodobacter sphaeroides Light-Harvesting 2 Complex at 2.1 Å” (Biochemistry, 2021).
Ends that are not written are not given here.

B1: LH2 β-polypeptide of the Rhodobacter sphaeroides light-harvesting 2 (LH2) complex (natural protein)
chain: not shown
notes: Gly51 is the C-terminus; N-terminal, transmembrane and C-terminal regions of 14, 32 and 5 residues; nine copies form the outer ring
B2: LH2 α-polypeptide of the Rhodobacter sphaeroides light-harvesting 2 (LH2) complex (natural protein, Rhodobacter sphaeroides 2.4.1, UniProt Q3J144 1-54, looked up)
chain: carboxyl-MTNGKIWLVVKPTVGVPLFLSAAVIASVVIHAAVLTTTTWLPAYYQGSAAVAAE
notes: Met1 is the N-terminus in the structure; nine copies form the inner ring; also called α-apoprotein

Key:
[1] = biological target: B2; test: cryo-EM structure; single-particle cryo-EM of the LH2 complex purified from membranes in 20 mM HEPES pH 7.8 with 0.1% LDAO; C9 symmetry imposed; 2.1 Å; settings: both partners purified
[2] = biological target: the molecule itself; test: as above

| binding result [1] | Binder | stoichiometry N [2] |
| --- | --- | --- |
| binds | B1 | 9 |
|  | B2 | 9 |
